In general, Kd refers to the free concentration of one partner at which half of the binding sites on the other are occupied at equilibrium, for simple one-to-one binding. Low values mean tighter binding, high ones weaker binding.

The values below come from patent publication US20190201496A1.

The target in this experiment is mβ2m. Kind of experiment: SPR; pH 6. (In SPR one partner is held on a chip, and binding of the other changes the refractive index at the surface.)

Mouse AFP N-His yielded a Kd of 1030 nM. Consider Human AFP N-His, for which the Kd is 280 nM.
